We go through 2 molecules from article PMC7276532, “C-terminal eYFP fusion impairs Escherichia coli MinE function” (Open Biology, 2020).

Data set [1] addresses T1, Strep-MinD^D40AΔ10 (E. coli, UniProt P0AEZ3 1-260, D40A).
T1 construct: MinD, E. coli, with D40A and lacking the last 10 amino acids; the reverse primer anneals 33 nucleotides upstream of the stop codon of minD; Cloned into the pET28a backbone without the region between NcoI and HindIII, so without the His and T7 tags; also called MinD^D40Δ10; source: E. coli Rosetta (DE3) pLysS, purified (Strep-Tactin cartridge, desalting); not shown: Strep-tag, N-terminal, kept
T1 sequence (looked up): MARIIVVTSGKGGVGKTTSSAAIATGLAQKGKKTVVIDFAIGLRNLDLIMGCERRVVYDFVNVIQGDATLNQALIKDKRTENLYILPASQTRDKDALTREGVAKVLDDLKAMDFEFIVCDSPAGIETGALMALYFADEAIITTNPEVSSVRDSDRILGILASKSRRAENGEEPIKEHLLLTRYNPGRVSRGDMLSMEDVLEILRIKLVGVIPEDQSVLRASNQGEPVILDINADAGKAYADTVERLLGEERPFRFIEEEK
Nature of the data set: pull-down; about 5 µM His-MinE or His-MinE-eYFP on MagneHis beads with 3 µM Strep-MinD^D40AΔ10, with ATP (1 mM), 5 mM MgCl2, 50 mM HEPES-KOH pH 7.25, 150 mM KCl, 10% glycerol, room temperature, 15 min; eluted with imidazole. The conditions noted are these: both partners purified.

Data set [2] deals with the molecule itself. Nature of the data set: SEC; Superdex 200, 13 µM protein injected, 50 mM HEPES-KOH pH 7.25, 150 mM KCl, 0.1 mM EDTA, 10% glycerol, room temperature; size judged against BSA (66 kDa) and carbonic anhydrase (29 kDa).

B1: His-MinE (natural protein, E. coli, UniProt P0A734 1-88, looked up)
chain: MALLDFFLSRKKNTANIAKERLQIIVAERRRSDAEPHYLPQLRKDILEVICKYVQIDPEMVTVQLEQKDGDISILELNVTLPEAEELK
notes: MinE, E. coli; the minE gene amplified from the MG1655 genome into pET28a (BamHI/HindIII); 88 amino acids; The same construct as m1, with the His-tag kept for the pull-down; source: E. coli Rosetta (DE3) pLysS, purified (IMAC nickel column, desalting); not shown: His6, N-terminal, kept
In the case of B1, the binding result in data set [1] is “binds”.

B2: MinE (untagged MinE; His-tag removed with thrombin) (natural protein, E. coli, UniProt P0A734 1-88, looked up)
chain: MALLDFFLSRKKNTANIAKERLQIIVAERRRSDAEPHYLPQLRKDILEVICKYVQIDPEMVTVQLEQKDGDISILELNVTLPEAEELK
notes: MinE, E. coli; the minE gene amplified from the MG1655 genome into pET28a (BamHI/HindIII); 88 amino acids; Eluted as a tetramer in SEC; also called wild-type; source: E. coli Rosetta (DE3) pLysS, purified (IMAC nickel column, desalting), His-tag removed with thrombin; not shown: His6, N-terminal, cleaved
Take B2: the “stoichiometry N” value in data set [2] worked out at 4.
